Legend:
[1] = target: cynomolgus monkey CD47 on engineered CHO-K1 cells (cynomolgus monkey); test: FACS on CHO-K1 cells expressing cynomolgus CD47 (CHOK1-cynoCD47), goat anti-human IgG-Fc PE; blank (Neg) 47.6
[2] = target: CD47 on human red blood cells (human) (UniProt Q08722); test: FACS on human red blood cells, goat anti-human IgG-Fc PE
[3] = target: CD47 on human red blood cells (human) (UniProt Q08722); test: FACS on human red blood cells, goat anti-human IgG-Fc PE; blank (Neg) 232
[4] = target: human CD47 ECD protein (human) (UniProt Q08722); test: competition ELISA against human SIRPα-His (1 µg/mL) on plate-coated human CD47 ECD; ligand only 1.438
[5] = target: human CD47 on engineered CHO-K1 cells (human) (UniProt Q08722); test: FACS on CHO-K1 cells expressing human CD47 (CHOK1-huCD47), goat anti-human IgG-Fc PE
[6] = target: human CD47 ECD protein (human) (UniProt Q08722); test: ELISA on plate-coated human CD47 ECD (1 µg/mL), goat anti-human IgG-Fc-HRP, OD450
[7] = target: human CD47 on engineered CHO-K1 cells (human) (UniProt Q08722); test: FACS on CHO-K1 cells expressing human CD47 (CHOK1-huCD47), goat anti-human IgG-Fc PE; blank (Neg) 34.8
[8] = target: cynomolgus monkey CD47 on engineered CHO-K1 cells (cynomolgus monkey); test: FACS on CHO-K1 cells expressing cynomolgus CD47 (CHOK1-cynoCD47), goat anti-human IgG-Fc PE
[9] = target: human CD47 on engineered CHO-K1 cells (human) (UniProt Q08722); test: competition FACS against human SIRPα-His (1 µg/mL) on CHOK1-huCD47 cells; ligand only 1086
[10] = target: human CD47 ECD protein (human) (UniProt Q08722); test: competition ELISA: plate-coated human CD47 ECD (1 µg/mL), antibody titrated together with human SIRPα-His (1 µg/mL), bound SIRPα detected with anti-His-HRP
[11] = target: human CD47 ECD protein (human) (UniProt Q08722); test: ELISA on plate-coated human CD47 ECD (1 µg/mL), goat anti-human IgG-Fc-HRP, OD450; blank (Neg) 0.102
[12] = target: human CD47 on engineered CHO-K1 cells (human) (UniProt Q08722); test: competition FACS: CHO-K1 cells expressing human CD47, antibody titrated together with human SIRPα-His (1 µg/mL), bound SIRPα detected with anti-His-biotin and streptavidin-PE

Chain of cynomolgus monkey CD47 on engineered CHO-K1 cells (cynomolgus monkey) (chain, as listed by the source, stated change not applied): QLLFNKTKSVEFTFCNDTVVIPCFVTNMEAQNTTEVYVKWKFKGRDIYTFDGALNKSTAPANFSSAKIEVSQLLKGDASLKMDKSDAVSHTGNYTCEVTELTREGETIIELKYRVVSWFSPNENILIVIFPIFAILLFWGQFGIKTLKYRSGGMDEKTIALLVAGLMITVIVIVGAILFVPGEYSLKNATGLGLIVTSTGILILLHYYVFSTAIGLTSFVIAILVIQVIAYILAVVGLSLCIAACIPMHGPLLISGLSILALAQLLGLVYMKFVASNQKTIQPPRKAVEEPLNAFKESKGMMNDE

| Binder | Max MFI [1] [MFI] | EC50 [2] [nM] | Max MFI [3] [MFI] | Max Inhibit% [4] [%] | Min OD [4] [OD450] | EC50 [5] [nM] | EC50 [6] [nM] | Max MFI [7] [MFI] | EC50 [8] [nM] | Max Inhibit% [9] [%] | Min MFI [9] [MFI] | IC50 [10] [nM] | Max OD [11] [OD450] | IC50 [12] [nM] |
| --- | --- | --- | --- | --- | --- | --- | --- | --- | --- | --- | --- | --- | --- | --- |
| W345-BMK4.uIgG4.SPK (antibody, from another filing, V domains shown) VH: QVQLQESGPGLVKPSGTLSLTCAVSGVSIRSINWWNWVRQPPGKGLEWIGEIYHSGSTNYNPSLKSRVTISVDKSKNQFSLKLNSVTAADTAVYYCARDGGIAVTDYYYYGLDVWGQGTTVTVSS VL: EIVLTQSPATLSLSPGERATLSCRASESVSSNLAWYQQKPGQAPRLLIYGAFNRATGIPARFSGSGSGTDFTLTISSLEPEDFAVYYCQQRSDWFTFGGGTKVEIK | 30600 | 4.82 | 37600 | 90.5 | 0.137 | 1.22 | 0.038 | 55400 | 38.9 | 67.4 | 354 | 2.84 | 1.82 | 1.92 |
| W345-BMK1.uIgG4PE.K (antibody, from another filing, V domains shown) VH: QMQLVQSGAEVKKTGSSVKVSCKASGFNIKDYYLHWVRQAPGQALEWMGWIDPDQGDTEYAQKFQDRVTITRDRSMSTAYMELSSLRSEDTAMYYCNAAYGSSSYPMDYWGQGTTVTV VL: NIQMTQSPSAMSASVGDRVTITCKASQDIHRYLSWFQQKPGKVPKHLIYRANRLVSGVPSRFSGSGSGTEFTLTISSLQPEDFATYYCLQYDEFPYTFGGGTKVEIK | 34200 | 0.69 | 42800 | 91.7 | 0.12 | 0.43 | 0.019 | 50000 | 0.34 | 71.3 | 312 | 0.97 | 1.92 | 0.51 |

— patent publication US20220403023A1
